Source: the supplement of paper PMC10567573
± gives the standard deviation.

Experiment: protein stability index of a GFP-peptide fusion (GPS, HEK-293T) (PSI 1-6); higher = more stable
Settings: c terminus: a fixed tail appended
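Further: 24-mer peptide tiles fused after GFP, lentivirally expressed, FACS-sorted into six equal bins by GFP/DsRed ratio, decoded by Illumina sequencing, PSI is the read-weighted mean bin number.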

| Sequence | protein stability index (treatment: DMSO) | protein stability index (treatment: MLN4924 1 uM, 8 h) |
| --- | --- | --- |
| FIARLQGSILQFNPEVGIFVSIAQ [SMG5] | 2.77 ± 0.59 | 2.64 ± 0.45 |
| ALVSHPEVPLISFTGSQPTAERIT [ALDH8A1] | 3.87 ± 0.2 | 3.87 ± 0.31 |
| YQQLCIYWTKYYDFKNPIIEKYLR [OAS1] | 2.92 ± 0.53 | 2.46 ± 0.7 |
| PHTPQTPGQGGPASTPAQTAAGGQ [NR2F2] | 5.3 ± 0.18 | 5.27 ± 0.23 |
| FAPFIVYYFIMACDQYSCALTGPV [DHCR7] | 3.01 ± 0.077 | 3.2 ± 0.2 |
| YSYVYQDGLRLLGARARGVAMLGV [SOAT2] | 2.55 ± 0.59 | 2.25 ± 0.21 |
| GAHWMRQLVSFQKLKLTNNHLDPF [TBX5] | 2.18 ± 0.21 | 2.19 ± 0.45 |
| TRPSGNNGNRRRRKLRKTVNGDGS [PHTF1] | 4.83 ± 0.2 | 5.03 ± 0.12 |
| TTLSFYGNSISISALQSLLQHLIG [PRAME] | 2.82 ± 0.46 | 2.82 ± 0.48 |
| DVNEQVMQVLGPEDLQSIIYKLEE [CEP70] | 3.7 ± 0.21 | 3.7 ± 0.24 |
| MENKAMYLHTVSDCDTSSICEDSF [SCARA5] | 4.46 ± 0.17 | 4.49 ± 0.22 |
| LELNFKAGDVIFLLSRINKDWLEG [NCF4] | 2.77 ± 0.7 | 3.09 ± 1.6 |
| TIMSLASLLFVVMFIPETKGCSLE [SLC2A12] | 3.37 ± 0.21 | 3.33 ± 0.83 |
| GGYNLASVSVWDLAAPSLHVKEQL [TLE6] | 2.38 ± 0.16 | 2.68 ± 0.33 |
| SLGYGFVNYSDPNDADKAINTLNG [ELAVL3] | 3.76 ± 0.22 | 3.98 ± 0.18 |
| DTQYGSSVDIWAIGCVFAELLTGQ [CDKL4] | 2.8 ± 0.59 | 2.37 ± 0.46 |
| DLTSEDQIVLLKSSAIEVIMLRSN [VDR] | 2.28 ± 0.21 | 2.05 ± 0.34 |
| EMMRFIYTGRAPNLDKMADNLLAA [SPOPL] | 2.42 ± 0.29 | 2.01 ± 0.19 |
| RPEGYNLKDEEGKLKDLSTVTSLQ [PPP2R2C] | 5.12 ± 0.23 | 5.29 ± 0.17 |
| ADLRLGGQPAPPQLLLGRLFRWPD [SMAD6] | 2.84 ± 0.13 | 2.83 ± 0.23 |
| TLKIRNSNFYTVAVTSLSSQIQYM [TMEM106C] | 2.23 ± 0.37 | 2.13 ± 0.36 |
| PQDYKKRLSVELTSSLFRTEPMAW [CTNNB1] | 2.67 ± 0.24 | 2.8 ± 0.21 |
| SPHRKRSDDSDEDEPCAISGKWTF [DLC1] | 4.47 ± 0.22 | 4.51 ± 0.13 |

| Sequence | protein stability index (treatment: DMSO) | protein stability index (treatment: MLN4924 1 uM, 8 h) |
| --- | --- | --- |
| AVGAAAEAEADEEADPPASDLPTP [SNX8] | 5.5 ± 0.27 | 5.56 ± 0.19 |
| PERRRSPGPAPGSPGELEEDLLLP [WEE1] | 5.33 ± 0.28 | 5.37 ± 0.38 |
| CEIQVRTLASAGGPDNLVLLNPEK [ADD1] | 3.42 ± 0.42 | 3.45 ± 0.26 |
| ARHFNYVGDLMGSLAYCLACGGGH [DHCR7] | 2.9 ± 0.71 | 2.68 ± 0.53 |
| LVGDRDVGKSEILESLQDGAAESP [RAB40A] | 5.57 ± 0.17 | 5.48 ± 0.21 |
| VCSDKRIPGFKFDNSLINQIENLN [LOXL2] | 2.56 ± 0.26 | 3.01 ± 0.25 |
| EIKDVLVWTNDQVVHWVQSIGLRD [PPFIA4] | – | 2.25 ± 0.37 |
| QSETQGLEGAQAPLAVEEDASSST [MAGEA10] | 5.64 ± 0.26 | 5.52 ± 0.33 |
| QWWNAVFIMLLIGIVLPVFYLVYF [LYSMD4] | 2.2 ± 0.16 | 2.14 ± 0.17 |
| EKMMQEAEKLKAQGEYSRKLEERF [CCDC89] | 3.48 ± 0.24 | 3.56 ± 0.52 |
| TTTLEGSPSVPCIFCEEHFPVAEQ [ZNF277] | 4.17 ± 0.27 | 4.32 ± 0.26 |
| LALRGRLQLEACGMRRKSLLTRKV [GOLPH3] | 2.26 ± 0.13 | 2.41 ± 0.21 |
| EKNQVQLGKLEATIKSLSAELLKA [SASS6] | 2.6 ± 0.45 | 2.54 ± 0.42 |
| VVVCQCGLSIPSHSSELTEQKLRA [RPAIN] | 2.1 ± 0.43 | 2.36 ± 0.38 |
| SSFFTCNQKCQLRLLKTLETSRSH [ATP23] | 2.44 ± 0.31 | 2.58 ± 0.33 |
| RLVAPTEGSLEWDILEVKRLLDHQ [WDR41] | 2.67 ± 0.46 | 2.77 ± 0.29 |
| EGKNMSFVNDLTVTQDGRKIYFTD [APMAP] | 3.98 ± 0.38 | 3.91 ± 0.58 |
| VHASGWNKILVPLVLLRQMLLELT [BCL2L13] | 2.2 ± 0.3 | 2.3 ± 0.24 |
| KQIAVAITEALRPAGVGVVVEATH [GCH1] | 2.37 ± 0.28 | 2.42 ± 0.25 |
| ERLAHSRAAAAAAVAAATAAVEGS [KCNA4] | 4.38 ± 0.2 | 4.25 ± 0.29 |
| WGFVHPRLLSVPELCHHVAEVWVS [RETREG3] | 3.04 ± 0.64 | 2.63 ± 0.57 |
| QLDMFYRNWALKESFIKAIGVGLG [AASDHPPT] | 2.78 ± 0.1 | 2.92 ± 0.58 |
